Drawing on a protein production outcome set (Wang et al. 2014), this text covers protein production for 20 sequences.
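Also: failed if final PepcDB status was selected cloned or expressed and not failed if soluble or beyond.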

This data set in a line: label from the status in PepcDB records.
As for “MMIDPELRPAFLPAGKLRAAINLGNPILAGTDAAGQAVGVSVDLAREFARRLNAGIELRVFDTAGQSVDAVTREEADIGFFAIDPARGAGIAFTGPYVLIEGAYLVRDDSPLQANEDVDRAGKRVTVGKGSAYDLHLTRALQHAEIVRAASSQAVVDTFLARRLDVAAGVKQQLQADARRVGGVRLLPGRFMVIRQAMGLPKARGDAAAACLDAFVESMKGNGFVAQALARHGIQGASVAPPGRDG”, the protein production result was “failed”. As to “MINEHYIPQAVILANGEYPAHELPLRLLAEAQFVVCCDGAANEYISRGHTPDVIIGDGDSLLPEYKKRFSSIILQISDQETNDQTKAVHYLQSKGIRKIAIVGATGKREDHTLGNISLLVEYMRSGMEVRTVTDYGTFIPVSDTQSFASYPGQQVSIINFGAKGLKAEGLFYPLSDFTNWWQGTLNEAIADEFTIHCTGEYLVFLAY”, the protein production result was “not failed”. Then “FLSTRDNVDELRKIENKSSFVSADNMPEYVKGAFISMEDERFYNHHGFDLKGTTRALFSTISDRDVQGGSTITQQVVKNYFYDNDRSFTRKVKELFVAHRVEKQYNKNEILSFYLNNIYFGDNQYTLEGAANHYFGTTVNKNSTTMSHITVLQSAILASKVNAPSVYNINN”, with “failed”; and “HQEIKGRKTLATPAVRRLAMENNIKLSEVVGSGKDGRILKEDILNYLEKQTGAILPP”, with “not failed”. Then “GTVSWNLREMLAHAEETRKLMPICMDVRAIMATIQRKYKGIKIQEGIVDYGVRFFFYTSKEPVASIITKLNSLNEPLVTMPIGYVTHGFNLEEAARCMRSLKAPAVVSVSSPDAVTTYNGYLTSSSKTSEEHFVETVSLAGSYRDWSYSGQRTELGVEFLKRGDKIVYHTLESPVEFHLDGEVLSLDKLKSLLS”, with “not failed”. Then “MLFELVILFVILFLFLGYPISKAWDSFQSKKENSSSILKFEPQEILSICLSYFIFGLGIMWNANDVRGGIPLHKFEKNGMMSDQYASLAHDHIAIVVLLVILGAVSYWRLTKGLTKLSPIFYIFYSTLMIVNIVYTFIYITHTGFAFYTELGGLRYIPVFCIQVGMLAFSLLFIAKLRNTLDYFIQSQNEKDYTQSNRIILLLYRISFGYQKMATVWMISLFPVLLIIQFILILFGQKPDSFIRVFMETSSFNYSKIPAPSPQIVSGDGHYLCTVSVKGHKNIVKPLRAGIRHGERITVNRQLLIANAFENVIEERVPKCHKVIRNFYDKYGYPISKHINTKWSADFVYILMKPLEWFFLFVLYTVDKNPENRIHIQYSELRK”, with “failed”. Regarding “MEALRLGFSPCPNDTFIFYALVHGRVESPVPLEPVLEDVETLNRWALEGRLPLTKLSYAAYAQVRDRYVALRSGGALGRGVGPLVVARGPLQALEGLRVAVPGRHTTAYFLLSLYAQGFVPVEVRYDRILPMVAQGEVEAGLIIHESRFTYPRYGLVQVVDLGAWWEERTGLPLPLGAILARRDLGEGLIRALDEAVRRSVAYALAHPEEALDYMRAHAQELSDEVIWAHVHTYVNAFSLDVGEEGERAVARLFAEAEARGLAAPSPRPLFV”, the protein production entry is “not failed”. Take “MQVSVETTQGLGRRVTITIAADSIETAVKSELVNVAKKVRIDGFRKGKVPMNIVAQRYGASVRQDVLGDLMSRNFIDAIIKEKINPAGAPTYVPGEYKLGEDFTYSVEFEVYPEVELQGLEAIEVEKPIVEVTDADVDGMLDTLRKQQATWKEKDGAVEAEDRVTIDFTGSVDGEEFEGGKASDFVLAMGQGRMIPGFEDGIKGHKAGEEFTIDVTFPEEYHAENLKGKAAKFAINLKKVEERELPELTAEFIKRFGVEDGSVEGLRAEVRKNMERELKSAIRNRVKSQAIEGLVKANDIDVPAALIDSEIDVLRRQAAQRFGGNEKQALELPRELFEEQAKRRVVVGLLLGEVIRTNELKADEERVKGLIEEMASAYEDPKEVIEFYSKNKELMDNMRNVALEEQAVEAVLAKAKVTEKETTFNELMNQQA”: the protein production result is “not failed”. Turning to “MEPNCVQFLENRTILVTGASGFLAKVLVERILRLQPNVKRLYLLVRASDKKSAEQRYDVALGINTFGAINVLNFAKKCVKPKLLLHVSTVYVCGERPGHIVEKHFAMGESLNGKNKVDINTERRLADQKSKQFKEQGCSEEETEQAMKDFGLKRARLYGWPNTYVFTKAMGEMLLGHYRETMPIVIIRPTIITSTFSDPFPGWIEGLKTVDSVIIFYGKGILKCFLVDQKTVCDIIPVDMVVNAMIAIAADHCHDSGSHTVYHVGSSNQNPVIYKQIYEMMSRYFMKSPLVGRNGMLIVPKVTRISTLARFRVYTNLRYKLPIQILGLLSVISLSQRDKFALHNRKFKMAMRLVKLYKPYVLFKGIFDDKNMETLRIKNEAKDMEKLFGTNPKCIDWEDYFMIRISLAS”, the protein production entry is “failed”.

Consider “MSIFANLKDRMKAVFQPRSDILASQDAESTPGSRDALFAIEELSRAVRNDPDAVEIYLALGNLYRLRGDIDRAVQIRSSLIVRPGLDNRFRARAYLELGRDYRRGGFVDRALQAFDEAQRLGAERDAIILELAHLHADSGSFDLAAEQFGRVGHKPAQAHYLVRHAEDLCGQGEFAEAVKTLTRAVKVYPGSIEAWTTRIAMHIRSGEWRKAKSMLREAMQSVSPDRRFLVFDGILAITPPENAPDSVQQFEQNRCECVLPVISEQEPELLLHYYGALFLLRCGEREQAGNWLAKAMVLRPDFWAARLELLGISMDRQQLSPVFKGQLEYFVSQARHVKRFVCQNCGLRREQAFYLCPRCRSWHSATFRLSLQD”, for which the protein production entry is “failed”.

In the case of “MMAKIDVELKKLHQILVDRDYFYQVPDYQRPYVWDKDHLGALIDDLVGSYTNNREDEYFCGSIVIVENQKDKRWDVVDGQQRLTSFIILACTILRLYKHSLGQESKDFIEDSIYDRYDKEKERLKFLTAQNYNSIFENTVLNHLEFEDNIKKSELNKKFEENTYLRNAYYFKELLNESVENGSISDIDDFVKWFYEHIVLTRIICFEQDSAMQIFQVLNDRGQPLSPIDILKSSLMQEIKQDSEKRKDFITTWDKLVEACKSVEGVDIDLEDFFNMYLEYADPSTSKKRADKGLKKVFKDSKKDACGFIYEISEFMKAYTALLKKQDRYVYLLRYLPSRYWASILTTALYVKYPDFDALKKLLVSYYYQTWIAGGTITRIKQTSINIIKNVKSNKSVETIKELILNSIDSYNTFDQYLYNLWDSSSVYHSKWVRPVLALANYFMADEEKPHFIAMDAETQVEHILPQTPKRGSQWNADFDKEKREEWVNNIANLTLLKRKKNAHALNGDFDEKRKIYGGKDTSKVISCYDITKELYSNYRKWNEKSLQERYKSLYNTITPVLHIEGQEDDFEDDFDLE”, the protein production entry is listed as “failed”.

“TEDTVIKVSVLRGPSVIAFADWLENPPIIDNKKVQVKVVDSPDLAQALLIKQETDIAVLPMINAANLYNKGIKIKLAGCPIWGTLYLVEKTPLKEPALYVFGNGTTPDILTRYYLGRQRLDYPLNYAFNTAGEITQGILAGKVNRAVLGEPFLSIALRKDSSLRITADLNHLTDNDTLGFAQTAVVYTPTMEKYRIAFEDALRASCQKAVRYPKETIHSLEEHGIFAQGALTPKSIERCKIYYLSAIEAKDAVMGFLRLIEQYEPKAVGGRLPDAGFIPEKQ”: the protein production result is reported as “not failed”. Then “MMTTAEQIPFQLILNSGNARSFAMEALQFAKQGKMAEADEAMVKAKEAINEAHHFQTELIQSEARGEKTEISVLLIHAQDHLMNAITVKELAAEFIDLYKKLEAKGE”, with “not failed”; and “MAIGIAANRLELLQIADAVAREKGIEKEVVIEAIEDALQKAARARYGAEHDIRVKIDPKTGETTQKRVIEVVSDDAELEGEIGKMPFSIAKRTWRDAEIGKVYEEVLPPFEIGRVQTQMARQVVMHKVREAERERQYDEYKDRVGEIVNGSVKRVEYGNVIVDLGRGEGIMRRDQSIPRENFNVGDRIRAYIYDVRRETKGPQIMLSRAHGGFMAKLFAQEVPEVYDGVIEIRAVARDPGSRAKMAVISNDGSIDPVGACVGMRGSRVQAVVAELQGEKIDIIQWSEDEATFIVNALAPAEVSKVVMDEEDERVEVVVPDEQLSLAIGRRGQNVRLASQLTGWQIDIMTESQESERRQREFAERTALFQEALDVDEVIAQLLVTEGFAAVEDVAYVEPHEIASIEGFDEETAEELQTRAREFLEKEAAELDAKRKALGVEDELLTIEGVTLAMAVALGEGDVKSIEDLAGLVPDDMRGWFENKGGERVREPGILESFNLSPEDAEALIMRARIAMGWVEAPPEPEPEPEFEEESSAEGDVVAEAEEEA”, with “failed”. Then “MGQSLPLLIRLIVVIWLTISMVTACPRAPTHLNHGRRTRGDNGYKLIVADGPNGYVPGKTYNLLLLGSRTHLKVQHFTHFTITAEAHTGARRPQAASPRRVGRFQLFSDSLTQFNDRCVNTVSEADDLPKTEVQVMWVAPESGSGCVSLSAMVYEGPRAWFADDGNLSTVICERKPDAAAAQKECCACDEAKYSFVFEGIWSNETHPKDYPFAIWLTHFSDVIGASHESNFSFWGENHIATAGFRSLAEWGSPAALETELRANGPKLRTLIKAAGLWYPNVNQNTSSKFRVDRKHPKVSLVSMFGPSPDWVVGISGLDLCTEDCSWKESMDFDLFPWDAGTDSGISYMSPNSETQPPERMYRITTMYPEDPRAPFYNPKSREMTPLAKLYLRREKIVSRNCDDEFLQALQLEVSDDAEEQDTRAECRVGDYSAWSPCSVSCGKGIRMRSRQYLYPAAADQNKCARQLVAKEMCVAAIPECADGPAQSKDRDDDEGENLANSQSLVGSNGEGAGLCKTSPWSVWSECSASCGIGITMRTRTFVNHLGRKRCPHITIVEKNKCMRPDCTYEQVELPDPQCPTSQWSDWSPCSSTCGRGVTIRTRLLLLENGPDKESCTQRMELHQQKECVNPIDCHINAEQAKDICVQAPDPGPCRGTYMRYAYDPQNQHCYSFTYGGCRGNRNNFLTENDCLNTCNVLRSPYSSRVDQPRACVLSDWSVWSPCSVSCGVGVSESRRYVVTEPQNGGQPCSKRLVKSRSCAMPAC”, with “failed”; and “MNEILHWKRNFFLLALGRFVSILGSSVQAVAIPLFVLDLTHSGSAVALMTVAYMVPRILFTPIAGIVGDRGDRKFLMVSMDFLRGFLICFLALLAFRNSITLPVLYVSQIAMAIMDNLFDIPTGAMFPDIVPQDFLMRANSIMGMVRIFPQILGPALGGVIYGFYGIAIVFLVNGVSFVLSAISEIFIVYSRKVEKKPAKFSQILEDLKEGFLFIWNHELIRTILIFALFLNLLISPLFMVVYPYTIREVMKFSAQEFGFLETSFTLGALLGNFLIASYLSKKNMWKAMKISIFLFELPIVFLGFLVMPDFSLNRLVLFSLFFITFLIMGFLNPIINVPLDTAFQKMTPSHIRARAFSFLILVANGVTPLGSVLYGYLVDRVPVHFLYYVVGALSFLVAVLLLVALRGKELPT”, with “failed”. Then “MTRVDVVTRTLPPNEVSEANPWDTDRFWTVPNVLSVIRLIGVPIFLWLALGPRADGWAVAVLAVAGLTDWLDGRIARRWHQVSRIGQMLDPVADRLYIFATVIALTLRDVIPLWLVIVLIARDVCMACLMPALRTRGFTSLPVHFVGKAATFCLLYSFPLVLLGRFGTGGWTACRVLGWAFAVWGTGLYWWAFFLYLVQTIRIVRTLPRISSRGEYS”, with “failed”; and “SEAWEYFHLAPARAGHHPNQYATCRLCGRQVSRGPGVNVGTTALWKHLKSMHREELEKSGHGQ”, with “not failed”.

Regarding “SNIRLIATDMDGTLTQQGRFSAALLQTLENLKAAGLPILIVTGRSAGWVSGISSLMPIAGAIGENGGLFYPADSEHPLLLTPIADLTGHRQNLALVFQKLKQKFPQIQESGDNRFRITDWTFDVAGLTLAELQLIGNLCQDMGWGFTYSNVQCHIKPQGQEKAIALLQVLQKYFPDYSPTQVVTVGDSPNDESLFNQRYFPLSVGVANVLKYAHQLQHQPSYVTTTAEGEGFCELCSYIL”, the protein production result was “failed”. The result for “ELALWSPEVKIVELVKDCKGLGFSILDYQDPLDPTRSVIVIRSLVADGVAERSGGLLPGDRLVSVNEYCLDNTSLAEAVEILKAVPPGLVHLGIC” reads “not failed”.
